Tests used:
[1] = biological target: T1, human MFAP4 in tissue (human mammary artery) (human, UniProt P55083 22-255); assay: immunohistochemistry on human mammary artery
T1 construct: Native protein detected by immunohistochemistry
T1 sequence (looked up): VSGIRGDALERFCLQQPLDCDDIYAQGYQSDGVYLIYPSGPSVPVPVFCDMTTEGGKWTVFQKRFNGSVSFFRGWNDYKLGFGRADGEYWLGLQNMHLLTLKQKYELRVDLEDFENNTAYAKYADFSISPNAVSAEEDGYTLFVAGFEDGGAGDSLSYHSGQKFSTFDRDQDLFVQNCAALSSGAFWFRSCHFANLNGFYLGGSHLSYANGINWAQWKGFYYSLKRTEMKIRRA

[2] = biological target: T2, mouse MFAP4 in tissue (mouse aorta) (mouse, UniProt Q9D1H9 23-257); assay: immunohistochemistry on mouse aorta; no signal in mfap4-/- tissue
T2 construct: Native protein detected by immunohistochemistry; signal absent in mfap4-/- tissue; also called mouse MFAP4 homologue
T2 sequence (looked up): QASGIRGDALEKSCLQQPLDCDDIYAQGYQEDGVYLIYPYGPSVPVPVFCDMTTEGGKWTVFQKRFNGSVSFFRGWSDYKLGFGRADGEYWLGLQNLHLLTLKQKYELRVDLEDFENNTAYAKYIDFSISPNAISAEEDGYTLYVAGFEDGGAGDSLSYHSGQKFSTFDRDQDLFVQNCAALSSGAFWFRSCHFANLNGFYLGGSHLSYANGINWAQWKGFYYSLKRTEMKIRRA

B1: HG-HYB 7-14 (antibody, V domains shown)
VH: EVKVVESGGGLVQPGGSLRLSCATSGFTFSDFYMEWVRQPPGKRLEWIAASRNKANDYTTEYSASVKGRFIVSRDTSQSILYLQLNALRAEDTAIYYCARNYYDSSYWYFDVWGAGTTVTVSS
VL: DIVLTQSPSYLAASPGETITINCRASKSISKYLAWYQERPGKTNKLLIYSGSTLQSGIPSRFSGSGSGTDFTLTISSLEPEDFAMYYCQQHNEYPFTFGAGTKLELK
notes: Monoclonal antibody raised in MFAP4-deficient C57BL/6N mice against rMFAP4; also called FITC-anti-MFAP4 (HG-HYB 7-14)
B1: binds [1]; binds [2].
